We go through twelve sequences from paper PMC8599795.

Like-named read-outs stand apart in the source and are kept apart here.

Experiment in all cases: SPR
Data set [1] concerns the target T1, DEN3-NS1 (NAD3) (Dengue virus 3 Sri Lanka D3/H/IMTSSA-SRI/2000/1266) (UniProt Q6YMS4).
T1 sequence: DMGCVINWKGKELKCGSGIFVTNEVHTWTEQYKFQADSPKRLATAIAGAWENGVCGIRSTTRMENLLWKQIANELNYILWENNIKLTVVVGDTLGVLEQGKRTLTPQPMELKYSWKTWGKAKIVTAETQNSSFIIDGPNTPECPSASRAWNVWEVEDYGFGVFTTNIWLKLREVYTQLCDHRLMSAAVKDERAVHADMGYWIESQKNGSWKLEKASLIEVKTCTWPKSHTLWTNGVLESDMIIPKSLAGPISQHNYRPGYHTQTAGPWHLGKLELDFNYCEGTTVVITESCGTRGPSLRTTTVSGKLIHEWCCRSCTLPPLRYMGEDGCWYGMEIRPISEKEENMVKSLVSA

Data set [2] concerns the target T2, DEN4-NS1 (NAD4) (Dengue virus 4 Dominica/814669/1981) (UniProt P09866).
T2 sequence: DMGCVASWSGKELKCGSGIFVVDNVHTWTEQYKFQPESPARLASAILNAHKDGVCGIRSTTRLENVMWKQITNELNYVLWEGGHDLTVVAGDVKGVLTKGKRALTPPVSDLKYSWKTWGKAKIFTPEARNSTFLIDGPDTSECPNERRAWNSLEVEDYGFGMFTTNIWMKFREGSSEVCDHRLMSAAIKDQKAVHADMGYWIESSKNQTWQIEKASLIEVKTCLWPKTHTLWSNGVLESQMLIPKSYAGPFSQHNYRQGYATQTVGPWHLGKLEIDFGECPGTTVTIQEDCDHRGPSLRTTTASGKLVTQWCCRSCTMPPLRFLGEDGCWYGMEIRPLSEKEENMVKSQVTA

Data set [3] concerns the target T3, DEN2-NS1 (NAD2) (Dengue virus 2 Thailand/16681/84) (UniProt P29990).
T3 sequence: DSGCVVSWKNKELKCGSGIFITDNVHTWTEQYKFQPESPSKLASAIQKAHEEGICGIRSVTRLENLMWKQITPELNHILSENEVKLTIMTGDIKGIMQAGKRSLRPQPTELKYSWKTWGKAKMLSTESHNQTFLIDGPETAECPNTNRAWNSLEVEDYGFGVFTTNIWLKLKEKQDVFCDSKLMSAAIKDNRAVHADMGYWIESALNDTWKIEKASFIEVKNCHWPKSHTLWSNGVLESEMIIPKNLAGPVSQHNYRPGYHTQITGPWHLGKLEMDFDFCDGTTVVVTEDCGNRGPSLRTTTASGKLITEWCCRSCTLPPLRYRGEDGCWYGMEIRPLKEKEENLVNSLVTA
The conditions noted are these: N1,N2 = Ds.

Regarding “CCGCTTGTCATCTAACCTGGCCATGTGGTACTGTAACGGCTGACAAGCGGCGCGTAGCG [Cont-D3-2-59h]”, the Kd in data set [1] is 190 nM.

Take “CCGCTTGTCATCTANCCTGGCCNTGTGGTACTGTAACGGCTGACAAGCGGCGCGTAGCG [D3-2-59h (AptD3)]”: the equilibrium dissociation constant (Kd) in data set [1] (N = Ds) stood at 0.057 nM.

The sequence “CGGCGGAGACGTAACGCATATCAAATCAAAACAGCTTAGGGTCCGCCGCGCGTAGCG [Cont-D4-3-57h]” registered a dissociation constant (Kd) in data set [2] of 2 nM. In other words, the single-digit nanomolar range.

On to “CGGCGGAGACGTAACGCNTATCAAATCNAAACAGCTTAGGGTCCGCCGCGCGTAGCG [D4-3-57h (AptD4)]”, for which, in data set [2] (N = Ds), the Kd came out at 0.03 nM. This lies in the picomolar range.

In data set [2] (N = Ds), “CTCCGCTGTCAAACGGNTATCACGGCNACACACCTGCGGACAGCGGAGCGCGTAGCG [D4-1-57h]” had a Kd of 0.029 nM.

In turn, “GACGGTCTACTGGTCCGNCTGGGAACAAGNGGCGGGAGGGANGGGTGTGGGTGCGACAAGCGGAGTAGTTAGACCGTCCGCGTAGCG [D2-1d-87h]” displayed a Kd in data set [3] (N3 = diol-Pa) of 0.105 nM.

With “GGCTGGTCCGNCTGGGAACAAGNGGCGGGAGGGANGGGTGTGGGTGCGACAAGCGGACCAGCCCGCGTAGCG [D2-1d-72h (AptD2)]”, in data set [3] (N3 = diol-Pa), the Kd is 0.104 nM.

In turn, “TGATATGGTCTACTGAAGTGTTGTCATCTANCCTGGCCNTGTGGTACTGTAACGGCTGACAAGCGGAGTAGTTAGACC [D3-2-78]” returned a Kd in data set [1] (N = Ds) of 0.041 nM.

In the case of “TGATATGGTCTACTGGAGGAGACGTAACGCNTATCAAATCNAAACAGCTTAGGGTCCGACAAGCGGAGTAGTTAGACC [D4-3-78]”, the Kd in data set [2] (N = Ds) was determined as 0.034 nM.

“TGATATGGTCTACTGGTCTCAACGGTTGTCAAACGGNTATCACGGCNACACACCTGCGGACAAGCGGAGTAGTTAGACC [D4-1-78]” returned a dissociation constant Kd in data set [2] (N = Ds) of 0.042 nM.

In data set [3] (N3 = diol-Pa), “TTTTCGCACTCCATGATATGGTCTACTGGTCCGNCTGGGAACAAGNGGCGGGAGGGANGGGTGTGGGTGCGACAAGCGGAGTAGTTAGACCGTCAAA [D2-1d-97]” gave a Kd of 0.114 nM. That is a sub-nanomolar value.

In data set [3] (N3 = diol-Px), “TTTTCGCACTCCATGATATGGTCTACTGGTCCGNCTGGGAACAAGNGGCGGGAGGGANGGGTGTGGGTGCGACAAGCGGAGTAGTTAGACCGTCAAA [D2-1y-96]” came in with a Kd of 0.041 nM.
